Laboratory results published in the supplement of paper PMC7125110.
± gives the standard error. Variants at the floor of the assay were thinned out.

B1: glmS ribozyme (parent)
chain: AUAAAAGCGCCAGAACUACAGAAAUGUAGUUGACGAGGAGGAGGUUUAUCGAAUUUUCGGCGGAUGCCUCCAAA

What was measured:
Details in all cases: with glucosamine-6-phosphate
glucosamine-6-phosphate [1] = variants of: B1; experiment: self-cleavage kobs at 160 uM GlcN6P; higher = faster cleavage; RNA array
In short: (§1)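 Tiles of sequenced MiSeq chips were imaged over ~14 h at 37 °C. On them, barcoded ribozyme variants had been transcribed in situ by E. coli RNA polymerase and were tracked via a hybridised Cy3 probe while glucosamine-6-phosphate (40 μM to 10 mM) in HEPES/KCl/Mg(OAc)2 buffer flowed in. Per-tile medians, normalised to baseline and to non-cleaving reference variants, were fit to one- or two-exponential decays for kobs, and weighted Michaelis–Menten fits gave kcat and KM.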

glucosamine-6-phosphate [2] = variants of: B1; experiment: self-cleavage kobs at 640 uM GlcN6P; higher = faster cleavage; RNA array
In short: as §1

glucosamine-6-phosphate [3] = variants of: B1; experiment: self-cleavage kobs at 2500 uM GlcN6P; higher = faster cleavage; RNA array
In short: as §1

glucosamine-6-phosphate [4] = variants of: B1; experiment: self-cleavage kobs at 10000 uM GlcN6P; higher = faster cleavage; RNA array
In short: as §1

Variant: AUAAAAGCGCCAGAACUACAGAAAUGUAGUUGACGAGGAGGAGGUUUAUCGAAUUUUAGGCGGAUGCCACCAAA [C58A U69A]
- self-cleavage kobs at 160 uM GlcN6P (glucosamine-6-phosphate [1]): 4.65e-05 ± 2.2e-05 s⁻¹
- self-cleavage kobs at 640 uM GlcN6P (glucosamine-6-phosphate [2]): 9.55e-05 ± 2.9e-05 s⁻¹
- self-cleavage kobs at 2500 uM GlcN6P (glucosamine-6-phosphate [3]): 0.000101 ± 3.1e-05 s⁻¹

Variant: AUAAAAGCGCGAGGACUACAGAAAUGUAGUCGACGAGGAGGGGGUUUAUCGAAUUGUCGGCGGUAGCCUCCAAA [C11G A14G U31C A42G U56G A64U U65A]
- self-cleavage kobs at 160 uM GlcN6P (glucosamine-6-phosphate [1]): < 1e-05 s⁻¹
- self-cleavage kobs at 640 uM GlcN6P (glucosamine-6-phosphate [2]): < 1e-05 s⁻¹

Variant: AUAAAAGCGCCUCAACUACAGAAAUGUAGUUGACGAGGAGGAGGUUGAUCGAAUUUUCGCCGGAUGCCUCCAAA [A12U G13C U47G G60C]
- self-cleavage kobs at 160 uM GlcN6P (glucosamine-6-phosphate [1]): < 1e-05 s⁻¹
- self-cleavage kobs at 2500 uM GlcN6P (glucosamine-6-phosphate [3]): < 1e-05 s⁻¹

Variant: AUAAAAGCGCCAGAACUACAGAAAUGUAUUUGACGAGGAGGGGGUUUAUCGAUUUUUCGGCGGAUGCCUCCAAA [G29U A42G A53U]
- self-cleavage kobs at 160 uM GlcN6P (glucosamine-6-phosphate [1]): 0.000316 ± 6.8e-05 s⁻¹
- self-cleavage kobs at 640 uM GlcN6P (glucosamine-6-phosphate [2]): 0.00125 ± 0.00026 s⁻¹
- self-cleavage kobs at 2500 uM GlcN6P (glucosamine-6-phosphate [3]): 0.00271 ± 0.00069 s⁻¹

Variant: AUAAAAGCGCCAGAACUACAGAAAUGUAGAUGACGAGGAGUAGGUUUAUCGAAUUUGCGGCAGAUGCCUCCAAA [U30A G41U U57G G62A]
- self-cleavage kobs at 160 uM GlcN6P (glucosamine-6-phosphate [1]): < 1e-05 s⁻¹
- self-cleavage kobs at 640 uM GlcN6P (glucosamine-6-phosphate [2]): < 1e-05 s⁻¹
- self-cleavage kobs at 2500 uM GlcN6P (glucosamine-6-phosphate [3]): < 1e-05 s⁻¹

Variant: AUAAAUGCGCCAGAACUACAGAAAUGUAGUUGACGAGUAGGAUGUUUAUCGAAUUUUCGGCGGAUGCCUCCAAA [A6U G38U G43U]
- self-cleavage kobs at 160 uM GlcN6P (glucosamine-6-phosphate [1]): < 1e-05 s⁻¹
- self-cleavage kobs at 2500 uM GlcN6P (glucosamine-6-phosphate [3]): < 1e-05 s⁻¹

Variant: AUAAAAGCGCCAGAAUUACAGAAAUGUAGUUGACGAGGAGGAUGUUUAUCGAAUUUCCGGCGGAUGCCUCCAAA [C16U G43U U57C]
- self-cleavage kobs at 160 uM GlcN6P (glucosamine-6-phosphate [1]): < 1e-05 s⁻¹
- self-cleavage kobs at 640 uM GlcN6P (glucosamine-6-phosphate [2]): < 1e-05 s⁻¹
- self-cleavage kobs at 2500 uM GlcN6P (glucosamine-6-phosphate [3]): < 1e-05 s⁻¹

Variant: AUAAAAGCGCCACAACUACAGAAAUGUAGUUGACGAGGAGGAGGUUUAUCGAAUUUUCGGCGGAUGCUUCUAAA [G13C C68U C71U]
- self-cleavage kobs at 160 uM GlcN6P (glucosamine-6-phosphate [1]): < 1e-05 s⁻¹
- self-cleavage kobs at 640 uM GlcN6P (glucosamine-6-phosphate [2]): < 1e-05 s⁻¹

Variant: AUAAAAGCGCAAGAACUACAGAAAUGUAGUUGACGAGCAGGAGGUUUAUCGAAUUUUCGGCGGAUGCCUCCAAA [C11A G38C]
- self-cleavage kobs at 160 uM GlcN6P (glucosamine-6-phosphate [1]): < 1e-05 s⁻¹
- self-cleavage kobs at 2500 uM GlcN6P (glucosamine-6-phosphate [3]): < 1e-05 s⁻¹

Variant: AUAAAAGCGCCAGAACUACAGAAAUGUAGUUGAGGAGGAUGAGGUUUAUCGAAUUUUCGGCCGAUGCCUCCAAA [C34G G40U G62C]
- self-cleavage kobs at 160 uM GlcN6P (glucosamine-6-phosphate [1]): < 1e-05 s⁻¹

Variant: AUAAAAGCGCCAGAACUACAGAAAUGUAGUUGACGGGGAAGAGAUGUAUCCAAUUUUCGGCGGAUGCCUCCAAA [A36G G40A G44A U46G G51C]
- self-cleavage kobs at 160 uM GlcN6P (glucosamine-6-phosphate [1]): < 1e-05 s⁻¹
- self-cleavage kobs at 2500 uM GlcN6P (glucosamine-6-phosphate [3]): < 1e-05 s⁻¹

Variant: AUAAAAGCUCCAGAACUACAGAAAUGUAGUUGCCGAGGAGGAGGUUUAUCGAAUUUUCGGCGGAUGGCUCCAAA [G9U A33C C67G]
- self-cleavage kobs at 160 uM GlcN6P (glucosamine-6-phosphate [1]): < 1e-05 s⁻¹
- self-cleavage kobs at 2500 uM GlcN6P (glucosamine-6-phosphate [3]): < 1e-05 s⁻¹

Variant: AUAAAAGCGCCAGAACUACAGAAAUGUAGUUGACGAGGAGGAGGCUCAUCGAAUUUUCGGCUGAUGCUUCCAAA [U45C U47C G62U C68U]
- self-cleavage kobs at 160 uM GlcN6P (glucosamine-6-phosphate [1]): < 1e-05 s⁻¹

Variant: AUAAAAGCGCCAGAACUACAGAAAUGUAGUUGACGAGGAGGAGGUUUAUCGAAUUUUCGGUUGAUGCCUCCAAA [C61U G62U]
- self-cleavage kobs at 160 uM GlcN6P (glucosamine-6-phosphate [1]): < 1e-05 s⁻¹
- self-cleavage kobs at 640 uM GlcN6P (glucosamine-6-phosphate [2]): < 1e-05 s⁻¹
- self-cleavage kobs at 10000 uM GlcN6P (glucosamine-6-phosphate [4]): < 1e-05 s⁻¹

Variant: AUAAAAGAGCCAGAACUACAGAAAUGUAGUUGAUGAGGAUUAGGAUUAUCGAAUUUUCGGCUGAUGCCUCCAAA [C8A C34U G40U G41U U45A G62U]
- self-cleavage kobs at 160 uM GlcN6P (glucosamine-6-phosphate [1]): < 1e-05 s⁻¹

Variant: AUAAAAGAGCCAGAACUACAGAAAUGUAGUUGUCGAGGAGGAGGUUUAUCGAAUUUUCGGCGGGUGUCUCGAAA [C8A A33U A64G C67U C71G]
- self-cleavage kobs at 160 uM GlcN6P (glucosamine-6-phosphate [1]): < 1e-05 s⁻¹

Variant: AUAAAAACGCCAGAACUACAGAAAUGUAGUCGACGAGGAGGAGGUUUAUCGAAUUUUCGGCGGAUGCCUCCAAA [G7A U31C]
- self-cleavage kobs at 160 uM GlcN6P (glucosamine-6-phosphate [1]): < 1e-05 s⁻¹
- self-cleavage kobs at 640 uM GlcN6P (glucosamine-6-phosphate [2]): < 1e-05 s⁻¹

Variant: AUAAAAGCGGCAGAACUACAGAAAUGUAGUUGACGAGGACGAGGUUUAUCGAAUUUUCGGCGGAUGCCUCCAAA [C10G G40C]
- self-cleavage kobs at 160 uM GlcN6P (glucosamine-6-phosphate [1]): < 1e-05 s⁻¹
- self-cleavage kobs at 640 uM GlcN6P (glucosamine-6-phosphate [2]): < 1e-05 s⁻¹
- self-cleavage kobs at 10000 uM GlcN6P (glucosamine-6-phosphate [4]): < 1e-05 s⁻¹
